The target in this test is T1, Protein A (UniProt P38507 37-477).
T1 construct: Precipitation reagent; also called Protein A-Sepharose
Kind of test: Protein A-Sepharose precipitation, anti-kappa western blot. (A western blot detects proteins with antibodies after separation by electrophoresis.)

Method: In a different set of experiments the ability of the ligand Traps to multimerize in the presence of ligand was tested.

B1: gp130-CH1•IL-6Rα-κ (other)
chain 1: ELLDPCGYISPESPVVQLHSNFTAVCVLKEKCMDYFHVNANYIVWKTNHFTIPKEQYTIINRTASSVTFTDIASLNIQLTCNILTFGQLEQNVYGITIISGLPPEKPKNLSCIVNEGKKMRCEWDGGRETHLETNFTLKSEWATHKFADCKAKRDTPTSCTVDYSTVYFVNIEVWVEAENALGKVTSDHINFDPVYKVKPNPPHNLSVINSEELSSILKLTWTNPSIKSVIILKYNIQYRTKDASTWSQIPPEDTASTRSSFTVQDLKPFTEYVFRIRCMKEDGKGYWSDWSEEASGITYEDRPSKAPSFWYKIDPSHTQGYRTVQLVWKTLPPFEANGKILDYEVTLTRWKSHLQNYTVNATKLTVNLTNDRYLATLTVRNLVGKSDAAVLTIPACDFQATHPVMDLKAFPKDNMLWVEWTTPRESVKKYILEWCVLSDKAPCITDWQQEDGTVHRTYLRGNLAESKCYLITVTPVYADGPGSPESIKAYLKQAPPSKGPTVRTKKVGKNEAVLEWDQLPVDVQNGFIRNYTIFYRTIIGNETAVNVDSSHTEYTLSSLTSDTLYMVRMAAYTDEGGKDGPEFTFTTPKFAQGEIESGGQGTLVTVSSASTKGPSVFPLAPSSKSTSGGTAALGCLVKDYFPEPVTVSWNSGALTSGVHTFPAVLQSSGLYSLSSVVTVPSSSLGTQTYICNVNHKPSNTKVDKKVEPKSCDKTHT
chain 2: LAPRRCPAQEVARGVLTSLPGDSVTLTCPGVEPEDNATVHWVLRKPAAGSHPSRWAGMGRRLLLRSVQLHDSGNYSCYRAGRPAGTVHLLVDVPPEEPQLSCFRKSPLSNVVCEWGPRSTPSLTTKAVLLVRKFQNSPAEDFQEPCQYSQESQKFSCQLAVPEGDSSFYIVSMCVASSVGSKFSKTQTFQGCGILQPDPPANITVTAVARNPRWLSVTWQDPHSWNSSFYRLRFELRYRAERSKTFTTWMVKDLQHHCVIHDAWSGLRHVVQLRAQEEFGQGEWSEWSPEAMGTPWTESRSPPAENEVSTPMQALTTNKDDDNILFRDSANATSLPVQDAGTVAAPSVFIFPPSDEQLKSGTASVVCLLNNFYPREAKVQWKVDNALQSGNSQESVTEQDSKDSTYSLSSTLTLSKADYEKHKVYACEVTHQGLSSPVTKSFNRGEC
notes: the experiment prints gp130-CH1; also called G16K
As for B1, the binding result is given as “no binding”.
